The values below come from article PMC11616081, “Structural basis of archaeal FttA-dependent transcription termination” (Nature, 2024).

To fix the notation:
B1: Tko Spt5 (natural protein, Thermococcus kodakarensis)
chain: MAEGKIFTVSVTVGQETTTANLIYSKAKTYNLPLYAILSPSKVKGYIFIEAPNKSAVEEAIRGIRHAKRVLPGEIPFSEIEHFLEEKPAVSGFEPGDIVELIAGPFKGEKAKVVRVDESKDEIVVELVSSVVPIPVTVRGEYVRLISKRQKE
notes: Spt5, Thermococcus kodakarensis; NGN domain and KOW domain; residues 1-3 not fitted in the map; Used as Spt4/5 (Spt4-Spt5 complex) in the biochemical assays; also called NusG/Spt5
B2: Tko FttA(H255A/H591A) (enzyme, Thermococcus kodakarensis)
chain: MIRRETFVDDILKEIREIIVQMVPREAGITDVEFEGPELVIYVKNPEAMMKDGELIKNLAKVLKKRISVRPDPDILLPPEKAEELIKQLVPPEAEITNISFDPSVGEVLIEARKPGLVIGKNGETLRLITQKVHWAPRVVRTPPIQSQTIYSIRSILQTESKDRRKFLRQVGRNIYRKSEYKSRWIRITGLGGFREVGRSALLVQTDESYVLVDFGVNIAALKDPTKAYPHFDAPEFRYVLDEGLLDAIIITHAALDHSGMLPYLFRYKLFDGPIYTTPPTRDLMTLLQQDFIEIQHMNGVEPLYRPKDIKEVIKHTITLDYGEVRDIAPDIRLTLHNAGHILGSSIVHLHIGNGLHNIAITGDFKFIPTRLFEPAVSRFPRLETLVMESTYGGSNDYQMPREEAEKRLIEVIHQTLKRGGKVLIPAMAVGRAQEIMMVLEEYARVGGIEVPIYLDGMIWEATAIHTAYPEYLSKHIREQIFHEGYNPFLNPIFKSVANSRERQDIIDSGEPAIIIATSGMLVGGPSVEYFKQLAPDPKNSIIFVSYQAEGTLGRQVQRGLREIPIVGEDGRTEVINVNMEVHTIDGFSGAADRRELMSYVARVRPRPERIITVHGEAHKCLDLSSSIHKKFGISTRAPNNLDAIRLK
notes: FttA (aCPSF, aCPSF1), Thermococcus kodakarensis; domains KH1 6-75, KH2 76-144, MβLa 198-428, βCASP 433-557, MβLb 576-639; residues 1-3 of FttA^prox not fitted in the map; Dimer in the structure (protomers FttA^prox and FttA^dist); also called FttA^prox; FttA^dist

Holding throughout (assay): cryo-EM structure; 4 μM Tko RNAP, 8 μM Spt4, 8 μM Spt5 and 5 μM nucleic acid scaffold (TEC[44] or TEC[52]) in 20 mM HEPES-NaOH pH 7.5, 30 mM KCl, 10 mM magnesium acetate, 1 mM dithiothreitol, 10 min at 22 °C; then FttA(H255A/H591A) added, 10 min at 22 °C and 5 min at 42 °C; CHAPSO added before freezing; single-particle reconstruction at 2.5 Å (TEC[44]) and 2.2 Å (TEC[52])

The target in the data set “Tko FttA(H255A/H591A)” is B2. As to conditions: both partners purified.
Data set [1] concerns the molecule itself.
For the data set “Tko Spt5”, the target named is B1. As to conditions: both partners purified.

As to B1, in the data set with Tko FttA(H255A/H591A), the binding result was “binds”.
Turning to B2, the “stoichiometry N” value in data set [1] is 2.

B3: Tko Spt4 (natural protein, Thermococcus kodakarensis)
chain: MAKERACRHCHYITTEDRCPVCGSRDLSDDWFDLVIVLDVESRIAKKLRESIPEAAKVPGKYAIRVR
notes: Spt4, Thermococcus kodakarensis; residues 1-3 not fitted in the map
B3: in the data set with Tko Spt5, the binding result is given as “binds”.

As usually defined, the stoichiometry N is a count of units in the complex or per binding partner.
